Laboratory results published in the nanobody polyreactivity screen of Harvey et al. (2022).

Experiment: yeast display, Sf9 membrane polyspecificity reagent, FACS + sequencing; frameworks hold sequencing errors
How it was run: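 Genes from sorted yeast were amplified by colony PCR, read by MiSeq 2 × 250 sequencing and filtered on CDR length. These cells carried a synthetic nanobody library in Saccharomyces cerevisiae BJ5465 and were sorted by FACS into low and high (top ~1%) gates on anti-HA and streptavidin fluorescence. Polyreactivity is labelled according to the gate of origin.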
In the case of “QVQLVESGGGLVQAGGSLRLSCAASGLIFYDNMGWYRQAPGKERELVAAISSSGGSTSYADSVKGRFTISRDNAKNTVYLQMNSLKPADTAVYYCAADSYPAYLGFVGFDYWGQGTQVTVSS”, the “polyreactivity (PSR sort gate)” value is reported as “low polyreactivity”.
With “QVQLVESGGGLVQAGGSLRLSCAASGLIFYEHAMGWYRQAPGKERELVAAINYDGDSTYYADSVKGRFTISRDNAKITVYLQMNSLKPEDTAVYYCAADGGWVLFWMDYCGQGTQVTVSS” the “polyreactivity (PSR sort gate)” value was “low polyreactivity”.
In the case of “QVQLVESGGGLVQAGGSLRLSCAASGLIFYFNAIGWYRQAPGKERELVASITRTGSTNYADSVKGRFTISRDNAKNTVYLHMNRLKPEYTAVYYCSAPWTQILDYWGQGTQVTVSS”, the “polyreactivity (PSR sort gate)” value is reported as “low polyreactivity”.
In the case of “QVQLVESGGGLVQAGGSLRLSCAASGLIFYHNARGWYRQAPGKERELVAAITASGGSTYYADSVKGRFTISRDNAKNTVYFQMNSLKPEDTAVYYCAADGPLDSDLDYWGQGTQVTVSS”, the “polyreactivity (PSR sort gate)” value is reported as “low polyreactivity”.
In the case of “QVQLVESGGGLVQAGGSLRLSCAASGLIFYIYAMGWYRQAPGKERELVAAITTGGRTNYADSVKGRFTISRDNAKNTVELQMNSLKPEDTAVYYCAKDFPIWISHGPDTDNDYWGQGTQVTVSS”, the “polyreactivity (PSR sort gate)” value is reported as “low polyreactivity”.
With “QVQLVESGGGLVQAGGSLRLSCAASGLIFYKNTMGWYRQAPGKERELVATITGRGGRTYYADSVKGRFTISRDIAKNSVYFQMNSLKPEDTAVYYCAARNQGRGYYWGQGTQVTVSS” the “polyreactivity (PSR sort gate)” value was “high polyreactivity”.
In the case of “QVQLVESGGGLVQAGGSLRLSCAASGLIFYNYAMGWYRQAPGKERELVAAISSGGSTYYADSVKGRFTISRDNAKNTVYLQMNSLKPEDTAVYYCAASGPGYSRYTQYDSWGQGTQVTVSS”, the “polyreactivity (PSR sort gate)” value is reported as “high polyreactivity”.
For “QVQLVESGGGLVQAGGSLRLSCAASGLIFYNYAMGWYRQAPGKERELVAAITSGGSTYYADSVKGGFTISRDNAKNTVYLQMNSLKPEDTAVYYWAADLTYTVPFDYWGQGTQVTVSS”, the “polyreactivity (PSR sort gate)” value was “high polyreactivity”.
For “QVQLVESGGGLVQAGGSLRLSCAASGLIFYPYAMGWYRQAPGKERELVAAISSGGSTNYADSVKGRFTISRDNAKNTVYLQMNSLKPEDTAVYYCAKRYPSFRGYGSFRYSGRKYWGQGTQVTVSS”, the “polyreactivity (PSR sort gate)” value was “high polyreactivity”.
With “QVQLVESGGGLVQAGGSLRLSCAASGLIFYRNAMGWYRQAPGKERELVAGITRGSNTYYADSVKGRFTISRVNAKNTVYLQMNSLKPEDTAVYYCAAQVPVLQRAGNTRFGYWGQGTQVTVSS” the “polyreactivity (PSR sort gate)” value was “low polyreactivity”.
With “QVQLVESGGGLVQAGGSLRLSCAASGLIFYRYTMGWYRQAPGKERELVAAISRRGGSTFYADSVKGRFTISRDNAKNTVYLQMNSLKPEDTAVYYCAAASWYRRKIYYSWGQGTQVTVSS” the “polyreactivity (PSR sort gate)” value was “high polyreactivity”.
With “QVQLVESGGGLVQAGGSLRLSCAASGLIFYRYVMGWYRQAPGKERELVASISTSGGRTYYADSVKGRFTISRDNAKNTVYLQMNSLKPEDTAVYYFAADFESYSRYYDGYDYWGQGTQVTVSS” the “polyreactivity (PSR sort gate)” value was “high polyreactivity”.
In the case of “QVQLVESGGGLVQAGGSLRLSCAASGLIFYSNAMGWYRQAPGKEREFVAAITRRGGSTYYADSVKGRFTISRDNAKNTVYLQMNSLKPEDTAVYYCNARYYHKRSTRVIFQYDYWGQGTQVTVSS”, the “polyreactivity (PSR sort gate)” value is reported as “high polyreactivity”.
In the case of “QVQLVESGGGLVQAGGSLRLSCAASGLIFYSYAMGWYRQAPGKERELVAAITGGGSTNYADSVKGRFTISRDNAKNTVYLPMHSLKPEDTAVYYCAAAFTLRKYDYWGQGTQVTVSS”, the “polyreactivity (PSR sort gate)” value is reported as “low polyreactivity”.
For “QVQLVESGGGLVQAGGSLRLSCAASGLIFYTNAMGWYRQAPGKERELVAAIDRASTNYADSVKGRFTISRDNAKNTVYLQMNSLKPEDTAVYYCAAGAGRSTFTVGYWGQGTQVTVSS”, the “polyreactivity (PSR sort gate)” value was “low polyreactivity”.
For “QVQLVESGGGLVQAGGSLRLSCAASGLIFYTYAMGWYRQAPGKEREFVAAISRRGGSTYYADSVKGRFTISRDNAKNTVYLQMNSLKPEDTAVYYCNARYTYPRPYEEYYYWGQGTQVTVSS”, the “polyreactivity (PSR sort gate)” value was “high polyreactivity”.
With “QVQLVESGGGLVQAGGSLRLSCAASGLIFYTYAMGWYRQAPGKERELVADINRSDGSTYYADSVKGRFTISRDNAKNTVYLQMNRLKPEDTAVYYCAVVGPYYSRFGGRYYYWGQGTQVTVSS” the “polyreactivity (PSR sort gate)” value was “low polyreactivity”.
With “QVQLVESGGGLVQAGGSLRLSCAASGLIFYVYAMGWYRQAPGKERELVADISTAGGITNYADSVKGRFTISRDNAKNTVYLQMNSLKPEDTAVYYCAATQPWYNTRTRYGSWGQGTQVTVSS” the “polyreactivity (PSR sort gate)” value was “low polyreactivity”.
For “QVQLVESGGGLVQAGGSLRLSCAASGLIFYVYAMGWYRQAPGKERELVASITWSGGRTYYADSVKGRFTISRDNAKNTVYLQMNSLKPEDTAVYFCAKDWWGGPPNVYHSEYEYWGQGTQVTVSS”, the “polyreactivity (PSR sort gate)” value was “low polyreactivity”.
For “QVQLVESGGGLVQAGGSLRLSCAASGLIIDGYAMGWYRQAPGKERELVATITVSGTSTYYADSVKGRFTISRDNAKNTVYLQMNSLKPEDTAVYYCATDRNYGYYFVEYDHDYWGQGTQVTVSS”, the “polyreactivity (PSR sort gate)” value was “low polyreactivity”.
In the case of “QVQLVESGGGLVQAGGSLRLSCAASGLIIPVYVMGWYRQAPGKERELVADITTVGSTYADSVKGRFTISRDNAKNTVYLQMNSLQPEDTAVYYCAADPPAPQYWWDHGNYWGQGTQVTVSS”, the “polyreactivity (PSR sort gate)” value is reported as “low polyreactivity”.
For “QVQLVESGGGLVQAGGSLRLSCAASGLILAPNAMGWYRQAPGKERELVAAITFRGVRTYYADSVKGRFTISRDNEKNTVYLQMNSLKPEDTAVYYCAAAVSKHYPYNYWGQGTQVSVSS”, the “polyreactivity (PSR sort gate)” value was “high polyreactivity”.
With “QVQLVESGGGLVQAGGSLRLSCAASGLILDGNAMGWYRTAPGKERELVAAITRSGGRTYYADSVKGRFTISRDNAKNTVYFQMNSLKPEDTAVYYCAALGWSGRYRYDYWGQGTQVTVSS” the “polyreactivity (PSR sort gate)” value was “high polyreactivity”.
With “QVQLVESGGGLVQAGGSLRLSCAASGLILGPYAMGWYRKAPGKERELVAAITRGGGTYYADSVKGRFTISRDNAKNTVYLQMNSLKPEDTAVYDCARIYYVSIYRYDYWGQGTQVTVSS” the “polyreactivity (PSR sort gate)” value was “high polyreactivity”.
In the case of “QVQLVESGGGLVQAGGSLRLSCAASGLILHKYAMGWYRQAPGKERELVASINSGANTNYADSVKGRFTISRDNAKNTVYLQMNSLKPEDTAVYYCNADPGFRDYYWGQGTQVNVSS”, the “polyreactivity (PSR sort gate)” value is reported as “low polyreactivity”.
For “QVQLVESGGGLVQAGGSLRLSCAASGLILKYYAMGWDRPAPGTEREFDAALTRRGGITYYADSVKGRFSISRDNAKNTVYLQMNSLKPEDTAVYYCAADPKLGSLAYWRYSYPLYDYWGQGTQVTVSS”, the “polyreactivity (PSR sort gate)” value was “low polyreactivity”.
With “QVQLVESGGGLVQAGGSLRLSCAASGLILNSYDMGWYRQAPGKERELVAAITRSGGNTFYADSVKGRFKISRDNAKNTVYLQMNSLNPEDTAVYYCNAYYTYWSQLYYWGQGTQVTVSS” the “polyreactivity (PSR sort gate)” value was “high polyreactivity”.
With “QVQLVESGGGLVQAGGSLRLSCAASGLILRYNGMGWYRQAPGKERELVAAISSNAGTTSYADSVKGRFTISRDNAKNTVYLQMNSLKPEDTAVYWGQGTQVTVSS” the “polyreactivity (PSR sort gate)” value was “low polyreactivity”.
For “QVQLVESGGGLVQAGGSLRLSCAASGLILSRNTMGWYRQAPGKERELVAAITRRGGSTYYADSVKGRFTISRDNAKNTVYLQMNSLKPEDTAVYYCRLKVGTTSRWSYDYWGQGTQVTVSS”, the “polyreactivity (PSR sort gate)” value was “high polyreactivity”.
With “QVQLVESGGGLVQAGGSLRLSCAASGLILSSNAMGWYRQAPGKERELVATINRSGASTYYADSVKGRFTISRDNAKNTVYLQMNSLKPEDTAVYYCNTATSRAYRYDYWGQGSQVTVSS” the “polyreactivity (PSR sort gate)” value was “low polyreactivity”.
In the case of “QVQLVESGGGLVQAGGSLRLSCAASGLILVHYAMGWYRQAPGKERELVAAISAGGGSTYYADSVKGRFTISRDNAKNTVYLQMTSLKPEDTAVYYCNARVVNYFRPRTGAREYDYWGQGTQVTVSS”, the “polyreactivity (PSR sort gate)” value is reported as “high polyreactivity”.
For “QVQLVESGGGLVQAGGSLRLSCAASGLILVYYAMGWYRQAPGKERELVAAITPGGSTKYADSVKGRFTISRDNAKNTVYLQMNSLKPEDTAVYYCYALSGPYWYSVYQSHQDDYWGQGTQVTVSS”, the “polyreactivity (PSR sort gate)” value was “low polyreactivity”.
